Data as given in patent US20140255414A1 (PROBIODRUG, published 2014).
Square brackets hold non-standard residues; d marks the D form. pGlu = O=C1CC[C@@H](C(=O)O)N1; PEG = not defined here

Columns and labels:
Aβ(pE11-18)-PEG peptide = molecular target: T1, Aβ(pE11-18)-PEG peptide (reading uncertain); experiment: ITC at 20 °C, peptide titrated into biotinylated antibody
T1 construct: The PEG attachment is not described further
T1 peptide: [pGlu]VHHQKLV-{PEG}
Method: 1.3.4.1 Determination of Thermodynamic Parameters With ITC, the thermodynamic parameters of the binding of anti Aβ11(pE) antibody from clone 13 at antigen Aβ11(pE) was determined. For the ITC experiment, the peptide Aβ(pE11-18)-PEG was used because the hydrophilic PEG group imparts hydrophilic properties and so it was possible to dissolve the peptide directly in ITC buffer. Former experiments with Aβ(pE11-20) could only be performed with 1-2% DMSO, due to the strong hydrophobicity of the peptide it was necessary to dissolve it with DMSO which could have an effect on the ITC binding properties. At first the antibody was dialyzed against ITC buffer (150 mM NaCl, 25 mM Na₂HPO₄, 25 mM KH₂PO₄, 1 mM EDTA, pH=7.1) over night at 4° C. The lyophilised peptide, stored at −20° C., was dissolved in identical ITC buffer pH=7.1 which was used for antibody dialysis. Both antibody and antigen must be in identical solutions, otherwise large heats of dilution will mask the desired observation. Before the ITC experiment, the concentration of antibody was determined by UV/VIS spectroscopy (see section 1.3.1). At first the antibody with e.g. 5.13 μM (see Table 4) was added into the sample cell and the reference cell was filled with distilled water. Then the antigen was injected into the sample cell with e.g. 81.78 μM (see Table 4). The antigen should be generally in twofold excess to the antibody, bearing in mind that an antibody has two binding sites the antigen was in the cell at least in fourfold excess to the antibody. The 30 injections (1×2 μl and 29×10 μl) were made with a 4-min interval between subsequent injections. The measurement of heat of reaction was performed at 20° C. Furthermore the heat of reaction was determined which was only generated by dilution of the antigen through the titration into ITC buffer (pH=7.1). Therefore the antigen was injected into the sample cell filled with ITC buffer. The heat of reaction which was generated during the titration of the antigen to the antibody was corrected about this value. The analysis of raw data and the determination of the association constant (KA), reaction stoichiometry (n), binding enthalpy (ΔH) and entropy (ΔS) was performed with Origin Software of MicroCal.

Aβ(pE11-30) peptide = molecular target: T2, Aβ(pE11-30) peptide (N-terminal pyroglutamate (Aβ position 11)); experiment: direct ELISA: AβpE(11-30) coated at 0-500 ng/ml, 1 µg/ml biotinylated antibody pre-incubated with streptavidin-HRP, absorption 450/540 nm
T2 construct: Synthesized peptide; Amine-coupled to a CM5 chip for SPR, or adsorbed to the microplate for the direct ELISA
T2 peptide: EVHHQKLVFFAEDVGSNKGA
Method: AβpE(11-30) peptide with different concentrations was coated over night at 4° C. and then blocked with ELISA-Blocker (−T) 2 h at RT. Anti Aβ11(pE) antibody (clone 13) biotinylated was pre-incubated with streptavidin-HRP conjugate 10 min at RT and diluted in ELISA-Blocker (+T) were performed. Addition of 1 μg/ml antibody (clone 13). Wash cycles in-between incubations with 6×300 μl/well TBS-T buffer (except after peptide coating). TMB/H₂O₂ were added, incubated 30 min at RT (dark) and enzyme reaction was stopped with 1 M H₂SO₄. Absorption was measured at 450/540 nm at TECAN Sunrise.

-TΔS (Aβ(pE11-18)-PEG peptide): -0.98 kcal/mol | Ka (Aβ(pE11-18)-PEG peptide): 8e+06 M⁻¹ | Kd (Aβ(pE11-18)-PEG peptide): 125 nM | Stoichiometry (N) (Aβ(pE11-18)-PEG peptide): 1.66 | binding result (Aβ(pE11-30) peptide): binds
B1: biotinylated monoclonal mouse anti Aβ11(pE) antibody (clone 13) (antibody, V domains shown)
VH: QVQLQQPGTELVKPGASVKLSCKASGFTFTSYWMHWVRQRPGQGLEWIGEINPSNGRTNYNEKFKSKATLTVDKSSSTAYMQLSSLTSEDSEVYYCARGDLAWDWSAYWGQGTLVTVSA
VL: DIVMSQSPSSLAVSAGEKVTMSCKSSQSLFYSRTRKNYLAWYQQKPGQSPKLLIYWASTRESGVPDRFTGSGSGTDFTLTISSVQAEDLAVYYCKQSYNLWSFGGGTKLEIKR
modifications: about 2 biotin molecules (NHS-PEO4-Biotin) coupled per antibody; sites not stated
notes: Mouse IgG; also called anti Aβ11(pE)-biotin antibody (clone 13); mAb mouse anti Aβ11(pE)-Biotin
